Results as given in patent US20250326840A1.

Legend:
[1] = biological target: PD-L1-his (QPP09) (human) (UniProt Q9NZQ7); assay: ELISA, PD-L1 captured by coated anti-HIS antibody
[2] = biological target: human PD-L1 on HCC827 cells (human) (UniProt Q9NZQ7); assay: FACS on HCC827 cells
Sequence of human PD-L1 on HCC827 cells (human) (Q9NZQ7 19-290): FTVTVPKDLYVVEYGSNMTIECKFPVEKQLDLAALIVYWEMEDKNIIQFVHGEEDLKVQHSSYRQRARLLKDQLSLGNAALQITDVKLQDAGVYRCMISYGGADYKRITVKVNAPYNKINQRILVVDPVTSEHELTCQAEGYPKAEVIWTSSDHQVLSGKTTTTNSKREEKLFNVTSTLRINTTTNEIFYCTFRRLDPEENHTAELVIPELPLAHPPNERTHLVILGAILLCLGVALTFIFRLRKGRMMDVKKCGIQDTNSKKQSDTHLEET

Sequence of PD-L1-his (QPP09) (human) (Q9NZQ7 19-239 limits assumed): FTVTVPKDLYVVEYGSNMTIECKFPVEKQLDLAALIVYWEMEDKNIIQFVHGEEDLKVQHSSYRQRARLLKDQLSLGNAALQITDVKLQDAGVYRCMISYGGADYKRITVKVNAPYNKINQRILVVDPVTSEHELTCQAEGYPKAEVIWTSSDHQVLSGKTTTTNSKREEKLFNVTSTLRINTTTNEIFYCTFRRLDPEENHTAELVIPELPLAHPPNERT

Substance: Tecentriq (antibody)
- EC50 [1]: 0.0919 nM
- EC50 [2]: 0.109 nM
